PMC4238996 (PLoS Neglected Tropical Diseases, 2014)

Target: T1, GST-tagged MupFHA (Mup018c, residues 1-362), wild type (M. ulcerans Agy99 (plasmid pMUM001), UniProt Q6MZ86 1-362)
T1 construct: also called MupFHA^wt; GST-MupFHA
T1 sequence: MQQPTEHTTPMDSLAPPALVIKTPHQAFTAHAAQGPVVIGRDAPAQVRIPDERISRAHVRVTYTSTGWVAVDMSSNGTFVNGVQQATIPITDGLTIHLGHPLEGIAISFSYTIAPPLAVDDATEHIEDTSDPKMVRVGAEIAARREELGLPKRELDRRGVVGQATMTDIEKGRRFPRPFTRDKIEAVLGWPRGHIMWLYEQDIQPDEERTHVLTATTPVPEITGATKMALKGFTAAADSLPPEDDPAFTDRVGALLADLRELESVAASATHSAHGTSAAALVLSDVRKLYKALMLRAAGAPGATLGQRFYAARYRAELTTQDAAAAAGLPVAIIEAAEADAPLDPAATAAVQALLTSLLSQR
Test: ELISA
Conditions: both partners purified

B1: MBP-tagged MupDivIVA S43/45/49A triple mutant (natural protein)
chain: MSHSELLDPALPKSPFGKQGYRYDDVDVFLRLIADELQGSDLAEADIHAITFRCAAPLTRGYDTESVDRFLDRIAETIARGHGDEGQ
- binding result: binds

B2: MBP-tagged MupDivIVA-P (Mup012c residues 1-87, phosphorylated by co-expression with PknQ) (natural protein, M. ulcerans Agy99 (plasmid pMUM001), UniProt Q6MZ92 1-87, looked up)
chain: MSHSELLDPALPKSPFGKQGYRYDDVDVFLRLIADELQGSDLSESDIHSITFRCAAPLTRGYDTESVDRFLDRIAETIARGHGDEGQ
notes: also called phosphorylated MupDivIVA
- binding result: binds
